Experimental data: patent publication US20190224274, “MIF INHIBITORS AND METHODS OF USE THEREOF” (The Johns Hopkins University, published 2019)
Where a chain is given by its changes, count along the chain named.

What was measured:
MIF D17A = biological target: T1, MIF D17A (Homo sapiens, UniProt P14174 P14174:1-115, D17A); test: EMSA; 10 mM Mg2+; text prints P17A; conditions: tags: GST tag removed; chain copies: 3; label: 5' biotin; stem loop with unpaired 5' and 3' bases
T1 sequence: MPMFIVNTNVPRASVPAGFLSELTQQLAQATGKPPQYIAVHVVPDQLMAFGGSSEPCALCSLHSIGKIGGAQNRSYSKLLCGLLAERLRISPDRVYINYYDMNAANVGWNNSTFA
Description: (§1) Both single stranded and double stranded forms of two classes of MIF DNA binding motifs were examined for MIF binding and cleavage specificity. The ssPS³⁰ sequence was synthesized with a 5′ biotin label and subjected to an electrophoretic mobility shift assay (EMSA) (FIG. 18C).
(§2) EMSA assay was performed using LightShift Chemiluminescent EMSA kit (Thermo Scientific) following the manufactures instruction. Briefly, purified MIF protein (2 μM) was incubated with biotin-labeled DNA substrates (10 nM) in the binding buffer containing 10 mM MgCl₂ for […] on ice. Then samples were separated on 6% retardation polyacrylamide followed by electrophoretic transfer to nylon membrane.

MIF D17Q = biological target: T2, MIF D17Q (Homo sapiens, UniProt P14174 P14174:1-115, D17Q); test: EMSA; 10 mM Mg2+; text prints P17Q; conditions: tags: GST tag removed; chain copies: 3; label: 5' biotin; stem loop with unpaired 5' and 3' bases
T2 sequence: T1 sequence with A17Q
Description: as §1, §2

MIF E22A = biological target: T3, MIF E22A (Homo sapiens, UniProt P14174 P14174:1-115, E22A); test: EMSA; 10 mM Mg2+; conditions: tags: GST tag removed; chain copies: 3 (inferred); label: 5' biotin; stem loop with unpaired 5' and 3' bases
T3 sequence: T1 sequence with A17D, E22A
Description: as §1, §2

MIF P16A = biological target: T4, MIF P16A (Homo sapiens, UniProt P14174 P14174:1-115, P16A); test: EMSA; 10 mM Mg2+; conditions: tags: GST tag removed; chain copies: 3; label: 5' biotin; stem loop with unpaired 5' and 3' bases
T4 sequence: T1 sequence with P16A, A17D
Description: as §1, §2

MIF E22Q = biological target: T5, MIF E22Q (Homo sapiens, UniProt P14174 P14174:1-115, E22Q); test: EMSA; 10 mM Mg2+; conditions: tags: GST tag removed; chain copies: 3 (inferred); label: 5' biotin; stem loop with unpaired 5' and 3' bases
T5 sequence: T1 sequence with A17D, E22Q
Description: as §1, §2

MIF [1] = biological target: T6, MIF (Homo sapiens, UniProt P14174 P14174:1-115); test: EMSA; 10 mM Mg2+; conditions: tags: GST tag removed (pGex-6P-1); chain copies: 3 (inferred, trimer by FPLC); label: 5' biotin
T6 sequence: T1 sequence with A17D
Description: In parallel with the ssDNA studies, MIF was tested to see if it binds to dsDNA using PS³⁰, poly A, PS³⁰ sequence-related substrates (5′bPS³⁰, 5′bSL, 5′bLF, 5′bRF, 5′bPA³⁰, and 5′bPASE) as well as non-related sequences (PCS and 5′bL3) (FIG. 3B and FIG. 19).
as §2

MIF [2] = biological target: T6, MIF; test: EMSA; 10 mM Mg2+; no obvious effect vs PS30; conditions: tags: GST tag removed (pGex-6P-1); chain copies: 3 (inferred, trimer by FPLC); label: 5' biotin; stem loop, no 3' unpaired bases
MIF [3] = biological target: T6, MIF; test: EMSA; 10 mM Mg2+; conditions: tags: GST tag removed (pGex-6P-1); chain copies: 3 (inferred, trimer by FPLC); label: 5' biotin; stem loop, 1 unpaired 3' base

CTCAGCCTCCCAAGTAGCTGGGATTACAGG (ssDNA) [PS30]: binds (MIF D17A); binds (MIF D17Q); binds (MIF E22A). CTCAGCCTCCCAAGTAGCTGGGATTACAGG (ssDNA) [PS30]: binds (MIF P16A); binds (MIF E22Q).

B1: dsPA30 (dsDNA)
DNA 1: AAAAAAAAAAAAAAAAAAAAAAAAAAAAAA
DNA 2: TTTTTTTTTTTTTTTTTTTTTTTTTTTTTT
B1: no binding (MIF [1]).

B2: dsPS30 (dsDNA)
DNA 1: CTCAGCCTCCCAAGTAGCTGGGATTACAGG
DNA 2: CCTGTAATCCCAGCTACTTGGGAGGCTGAG
B2: no binding (MIF [1]).

AAAAAAACTCAGCCTCCCAAGTAGCTGGGA (ssDNA) [LF]: binds (MIF [2]).

B3: dsRF (dsDNA)
DNA 1: TCCCAAGTAGCTGGGATTACAGGAAAAAAA
DNA 2: TTTTTTTCCTGTAATCCCAGCTACTTGGGA
B3: no binding (MIF [1]).

B4: dsSL (dsDNA)
DNA 1: CCTGTAATCCCAAGTAGCTGGGATTACAGG
DNA 2: CCTGTAATCCCAGCTACTTGGGATTACAGG
B4: no binding (MIF [1]).

B5: dsL3 (dsDNA)
DNA 1: ACCTAAATGCTAGAGCTCGCTGATCAGCCT
DNA 2: AGGCTGATCAGCGAGCTCTAGCATTTAGGT
B5: no binding (MIF [1]).

AAAAAAAAAACAAGTAGCTGGGATTACAGG (ssDNA) [3F1]: binds (MIF [3]).

B6: dsLF (dsDNA)
DNA 1: AAAAAAACTCAGCCTCCCAAGTAGCTGGGA
DNA 2: TCCCAGCTACTTGGGAGGCTGAGTTTTTTT
B6: no binding (MIF [1]).
